The values below come from patent US20180193437A1 (UNIVERSITY OF FLORIDA RESEARCH FOUNDATION, published 2018).

This test addresses T1, rabbit IFNγ (rabbit, UniProt P30123 24-167).
T1 construct: also called rabbit IFNgamma; interferon gamma
T1 sequence (looked up): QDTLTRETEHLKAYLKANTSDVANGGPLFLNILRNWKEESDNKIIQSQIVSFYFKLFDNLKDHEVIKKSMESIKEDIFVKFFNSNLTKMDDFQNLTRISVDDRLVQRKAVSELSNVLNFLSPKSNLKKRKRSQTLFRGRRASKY
Nature of the test: binding data, method not described.

B1: M-T7 point mutation E209I (other)
chain: VRLTSYDLNTFVTWQDDGYTYNVSIKPYTTATWINVCEWASSSCNVSLALQYDLDVVSWARLTRVGKYTEYSLEPTCAVARFSPPEVQLVRTGTSVEVLVRHPVVYLRGQEVSVYGHSFCDYDFGYKTIFLFSKNKRAEYVVPGRYCDNVECRFSIDSQESVCATAVLTYDGSYRSEAGVEVCVPELAKRIVSPYIVKKSSDLEYVKRAIHNEYRLDTSSEGRRLEELYLTVASMFERLVEDVFE
notes: The mutant was made by mutagenic PCR of the His-tagged M-T7 construct; also called M-T7 (E209I); not shown: C-terminal His tag (His6x)
Consider B1, for which the binding result is on record as “no binding”.
